Measured values taken from PMC3628942.

Target: Bombyx mori lipoprotein 3 (Bombyx mori) (UniProt Q00802)
Experiment: crystal structure; crystal form Bmlp3-c2, space group C2, two molecules in the asymmetric unit; grown in 2.0 M ammonium sulfate, 0.1 M ammonium iodide, pH 5.5, 20°C; an iodide anion lies in the centre of the dimer interface

Bombyx mori lipoprotein 3 (from UniProt Q00802 18-256) (natural protein)
stoichiometry N: 2
